PMC9210341

Columns and labels:
Assay in all cases: SPR
[1] = target: equine angiotensin converting enzyme 2 (residues 19-615) (horse (equine))
[2] = target: SARS-CoV-2 Delta variant receptor binding domain (residues 319-541) (SARS-CoV-2 (Delta variant)) (UniProt P0DTC2)
[3] = target: SARS-CoV-2 Beta variant receptor binding domain (residues 319-541) (SARS-CoV-2 (Beta variant)) (UniProt P0DTC2)

| Substance | fold lower affinity than hACE2 with the SARS-COV-2 PT-RBD [1] [fold] | fold decrease in affinity against the SARS-CoV-2 PT-RBD [2] [fold] | fold decrease in affinity against the SARS-CoV-2 PT-RBD [3] [fold] |
| --- | --- | --- | --- |
| SARS-CoV-2 prototype receptor binding domain (residues 319-541) (from UniProt P0DTC2 319-541) (domain or fragment) | 32.2 | – | – |
| equine angiotensin converting enzyme 2 (residues 19-615) (from UniProt A0A9L0TPT7 19-615) (receptor) | – | 2 | 4.1 |
